# Measurements: patent US20100311820, “NUCLEIC ACID MODULATORS OF GLYCOPROTEIN VI” (Regado Biosciences, Inc, published 2010)
# Positions count from the first letter of the chain named.
# B1: EF-3 T5 mut8 (ssRNA)
# RNA: GGGAGGACGGCGAUCACACGCCUGGCGUAAGCCUCCC
# modifications: 2'-F C and U; 2'-OH A and G
# B2: EF-3 T5 mut9 (ssRNA)
# RNA: B1 RNA with G24U, G27A
# modifications: 2'-F C and U; 2'-OH A and G
# B3: EF-3 T5 mut10 (ssRNA)
# RNA: B1 RNA with G27A
# modifications: 2'-F C and U; 2'-OH A and G
# B4: RB508 (ssRNA)
# RNA: GGGAGGACGGCGCGCCUGGCAUAAGCCUCCC
# modifications: RB490 with 5' hexylamino linker
# B5: RB571 (ssRNA)
# RNA: GGAGGACGGCGCGCCUGGCAUAAGCCUCC
# modifications: RB567 with 5' branched 40 kDa PEG
# B6: EF-3 annealed to 3' DNA primer (mixed)
# RNA: GGGAGGACGAUGCGGAUCACACCGCGUCUUGCGUAAGCCUCCUACUAACGGAUCGCAGACGACUCGCUGAGGAUCCGAGA
# DNA: TCTCGGATCCTCAGCGAGTCGTCTG
# modifications: RNA strand 2'-F C and U; 2'-OH A and G
# B7: EF-2 (RB427) (ssRNA)
# RNA: GGGAGGACGAUGCGGUGCCAAAACACCCGUCUUGCAUAAGCCUCCUACGGCAACUCAGACGACUCGCUGAGGAUCCGAGA
# modifications: 2'-F C and U; 2'-OH A and G
# B8: EF-1 (RB424) (ssRNA)
# RNA: GGGAGGACGAUGCGGCAAUCGAAGCUGCAUCCAGCGUAAGCCUUCCAGGGAUCGUCAGACGACUCGCUGAGGAUCCGAGA
# modifications: 2'-F C and U; 2'-OH A and G
# B9: EF-1 T1 (RB426) (ssRNA)
# RNA: GGGAGGACGAUGCGGCAAUCGAAGCUGCAUCCAGCGUAAGCCUUCC
# modifications: 2'-F C and U; 2'-OH A and G
# What was measured:
# [1] = molecular target: T1, Glycoprotein VI extracellular domain (Gln21-Lys267) (Homo sapiens, UniProt Q9HCN6 SEQ:1-247); assay: filter; text p359 names it EF-3 T2mut8; conditions: tags: C-terminal His6; R&D Systems 3627-GP; label: 5'-32P
# T1 chain: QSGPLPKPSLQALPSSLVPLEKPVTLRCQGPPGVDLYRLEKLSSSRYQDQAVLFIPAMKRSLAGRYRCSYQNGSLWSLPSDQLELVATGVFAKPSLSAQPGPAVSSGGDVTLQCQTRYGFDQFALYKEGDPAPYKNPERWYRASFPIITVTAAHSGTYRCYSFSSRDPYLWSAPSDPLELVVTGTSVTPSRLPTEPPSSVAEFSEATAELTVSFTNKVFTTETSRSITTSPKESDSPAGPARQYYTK
# Description: (§1) Enrichment of the ligand libraries for GPVI was monitored in direct binding studies utilizing radiolabeled ligand RNA from respective rounds of SELEX and soluble GPVI. Binding studies were performed with trace P³² end-labeled RNA added to serial dilutions of GPVI in Binding Buffer F. To prepare radiolabeled RNAs for binding studies, one hundred picomoles of RNA was dephosphorylated with Bacterial Alkaline Phopshatase at 50° C. for 1 hour. The reaction was phenol:chloroform:isoamyl alcohol (25:24:1) extracted, chloroform: isoamyl:alcohol (24:1) extracted, and ethanol precipitated. Three pmoles of dephosphorylated RNA was end labeled with T4 Poylnucleotide Kinase with supplied buffer, and 20 μCi of γ-P³²-ATP and subsequently cleaned with a Biorad MicroBio Spin P-30 spin column. End-labeled RNA was diluted to a final concentration of 2000 cpm/μL and heat denatured at 65° C. for 5 minutes. RNA and GPVI dilutions were equilibrated at 37° C. prior to use. RNA (5 μL) was added to varying concentrations of GPVI (15 μL) at 37° C. and incubated together for 5 to 15 minutes. […] The membranes were exposed to a phosphorimager screen, scanned, and quantitated with a Molecular Dynamics Storm 840 Phosphorimager. The fraction bound was calculated by dividing the counts on the nitrocellulose by the total counts and adjusting for the background. […]
# [2] = molecular target: T1, Glycoprotein VI extracellular domain …; assay: filter; text p359 names it EF-3 T2 mut9; conditions: tags: C-terminal His6; R&D Systems 3627-GP; label: 5'-32P
# Description: as §1
# [3] = molecular target: T1, Glycoprotein VI extracellular domain …; assay: filter; text p359 names it EF-3 T2mut10; conditions: tags: C-terminal His6; R&D Systems 3627-GP; label: 5'-32P
# Description: as §1
# [4] = molecular target: T1, Glycoprotein VI extracellular domain …; assay: competition; 5' linker ligands assayed by competition; conditions: tags: C-terminal His6; R&D Systems 3627-GP
# [5] = molecular target: T1, Glycoprotein VI extracellular domain …; assay: competition; competition with radiolabeled parent ligand; conditions: tags: C-terminal His6; R&D Systems 3627-GP
# [6] = molecular target: T1, Glycoprotein VI extracellular domain …; assay: filter; binding comparable with and without annealed 3' primer; conditions: tags: C-terminal His6; R&D Systems 3627-GP; label: 5'-32P; 3' fixed region paired with DNA primer
# Description: The reaction was phenol:chloroform:isoamyl alcohol (25:24:1) extracted, chloroform: isoamyl:alcohol (24:1) extracted, and ethanol precipitated. Three pmoles of dephosphorylated RNA was end labeled with T4 Poylnucleotide Kinase with supplied buffer, and 20 μCi of γ-P³²-ATP and subsequently cleaned with a Biorad MicroBio Spin P-30 spin column. End-labeled RNA was diluted to a final concentration of 2000 cpm/μL and heat denatured at 65° C. for 5 minutes. RNA and GPVI dilutions were equilibrated at 37° C. prior to use. RNA (5 μL) was added to varying concentrations of GPVI (15 μL) at 37° C. and incubated together for 5 to 15 minutes. The complexed RNA/GPVI protein mixture was then loaded over a Protean BA85 nitrocellulose membrane, overlayed on a Genescreen Plus Nylon membrane, in a 96 well vacuum manifold system with washing. The membranes were exposed to a phosphorimager screen, scanned, and quantitated with a Molecular Dynamics Storm 840 Phosphorimager. The fraction bound was calculated by dividing the counts on the nitrocellulose by the total counts and adjusting for the background. Results for binding of enriched ligand libraries from round 10 E2 and round 10 EF of the SELEX as compared to the GPVI-naïve starting ligand library are shown in FIG. 3. […]
# [7] = molecular target: T1, Glycoprotein VI extracellular domain …; assay: filter; buffer F, 37 C; conditions: tags: C-terminal His6; R&D Systems 3627-GP; label: 5'-32P
# Description: as §1, with “minutes.” for “minutes. RNA and GPVI dilutions were equilibrated at 37° C. prior to use. RNA (5 μL) was added to varying concentrations of GPVI (15 μL) at 37° C. and incubated together for 5 to 15 minutes.”
# (§2) The affinity of each of the anti-GPVI ligands for GPVI was determined by direct binding studies using radiolabeled trace ligand RNA and soluble GPVI, per the binding methodology described above in Example 1.
# [8] = molecular target: T1, Glycoprotein VI extracellular domain …; assay: filter; text: family range about 11 to 50 nM, EF-1 lowest affinity; conditions: tags: C-terminal His6; R&D Systems 3627-GP; label: 5'-32P
# Description: as §1, with “minutes.” for “minutes. RNA and GPVI dilutions were equilibrated at 37° C. prior to use. RNA (5 μL) was added to varying concentrations of GPVI (15 μL) at 37° C. and incubated together for 5 to 15 minutes.”
# as §2
# [9] = molecular target: T1, Glycoprotein VI extracellular domain …; assay: filter; equivalent to full-length EF-1; conditions: tags: C-terminal His6; R&D Systems 3627-GP; label: 5'-32P
# Description: as §1
binder,measurement,setting,value
B1,Kd,[1],15.5 nM
B2,Kd,[2],15.5 nM
B3,Kd,[3],15.5 nM
B4,Kd,[4],< 10 nM
B5,Kd,[5],~5 nM
B6,binding result,[6],binds
B7,Kd,[7],15.5 nM
B8,Kd,[8],> 40 nM
B9,Kd,[9],> 40 nM
